Assay [1] concerns the target T1, GST-Sall1 (full length) (mouse, UniProt Q9ER74 1-1322).
T1 sequence (looked up): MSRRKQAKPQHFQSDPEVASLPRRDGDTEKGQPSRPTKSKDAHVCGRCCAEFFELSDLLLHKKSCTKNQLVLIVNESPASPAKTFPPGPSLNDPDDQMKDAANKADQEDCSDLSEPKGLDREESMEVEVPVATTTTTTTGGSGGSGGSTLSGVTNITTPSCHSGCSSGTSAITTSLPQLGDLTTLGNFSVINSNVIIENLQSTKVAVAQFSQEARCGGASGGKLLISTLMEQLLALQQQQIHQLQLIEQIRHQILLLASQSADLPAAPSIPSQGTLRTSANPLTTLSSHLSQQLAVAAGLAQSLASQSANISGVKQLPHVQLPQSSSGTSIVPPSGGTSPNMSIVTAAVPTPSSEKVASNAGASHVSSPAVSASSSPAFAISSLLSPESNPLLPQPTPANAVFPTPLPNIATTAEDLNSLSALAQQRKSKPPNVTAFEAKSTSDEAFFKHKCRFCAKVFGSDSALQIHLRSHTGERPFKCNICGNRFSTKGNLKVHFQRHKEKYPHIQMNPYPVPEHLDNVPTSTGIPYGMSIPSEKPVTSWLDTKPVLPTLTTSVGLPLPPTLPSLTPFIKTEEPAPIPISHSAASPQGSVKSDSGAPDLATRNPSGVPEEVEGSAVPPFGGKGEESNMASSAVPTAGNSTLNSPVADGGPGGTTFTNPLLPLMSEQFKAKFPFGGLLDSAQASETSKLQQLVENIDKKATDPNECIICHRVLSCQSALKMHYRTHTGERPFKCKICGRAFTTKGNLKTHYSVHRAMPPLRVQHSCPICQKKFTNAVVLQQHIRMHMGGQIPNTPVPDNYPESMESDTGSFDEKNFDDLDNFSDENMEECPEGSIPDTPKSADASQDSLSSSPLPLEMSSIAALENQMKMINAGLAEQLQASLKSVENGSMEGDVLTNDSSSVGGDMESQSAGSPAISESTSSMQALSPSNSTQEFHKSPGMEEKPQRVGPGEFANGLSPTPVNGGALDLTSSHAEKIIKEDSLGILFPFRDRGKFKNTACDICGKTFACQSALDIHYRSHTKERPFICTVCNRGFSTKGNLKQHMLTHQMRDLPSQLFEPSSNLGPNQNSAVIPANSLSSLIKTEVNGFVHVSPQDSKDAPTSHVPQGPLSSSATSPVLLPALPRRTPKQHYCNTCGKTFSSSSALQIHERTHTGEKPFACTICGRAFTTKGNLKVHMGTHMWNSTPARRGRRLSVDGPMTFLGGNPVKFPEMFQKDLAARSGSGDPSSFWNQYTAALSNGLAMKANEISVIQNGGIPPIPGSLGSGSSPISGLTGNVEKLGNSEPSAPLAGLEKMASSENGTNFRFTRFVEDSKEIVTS
The assay can be described thus: pull-down.

Assay [2] concerns the target T1, GST-Sall1 (full length). The assay can be described thus: pull-down. The source holds these as a separate data set.

Read-outs that look alike come from different tables or passages of the source.

B1: His-Sox2 aa 1-240 (domain or fragment)
chain: not shown
B1: the binding result with GST-Sall1 (full length) [1] is recorded as “binds”.

B2: His-Sox2 (full length) (natural protein)
chain: not shown
B2: the binding result in the assay with GST-Sall1 (full length) [2] and in the assay with GST-Sall1 (full length) [1] was “binds” throughout.

The values are drawn from paper PMC3020710 (The Journal of Biological Chemistry, 2010).
